Our source for the Kd, koff and kon values is PMC7255614, “Strain-specific joint invasion and colonization by Lyme disease spirochetes is promoted by outer surface protein C” (PLoS Pathogens, 2020).

Assay [1] has as its target T1, fibronectin (UniProt P02751 32-2477). In words: ELISA; wells coated with 10 μg/ml purified fibronectin in 0.05 M Na2CO3 pH 9.0; 0.03125-2 μM GST or GST-tagged OspC variants, 1 hr at ambient temperature; goat anti-GST and HRP-conjugated anti-goat IgG; estimated KD from a fit of OD405. The note with it: both partners purified.
The target in assay [2] is T1, fibronectin. In words: SPR; Biacore 3000; fibronectin on a CM5 chip; 0-500 nM untagged OspC variants injected at 10 μl/min, 25°C; 1:1 Langmuir model; KD from the average koff divided by kon of each run. The note with it: both partners purified. A general note: SPR reads the build-up and loss of mass on a sensor chip optically.

Where a chain is given by its changes, count along the chain named.

T1 sequence (P02751 32-2477): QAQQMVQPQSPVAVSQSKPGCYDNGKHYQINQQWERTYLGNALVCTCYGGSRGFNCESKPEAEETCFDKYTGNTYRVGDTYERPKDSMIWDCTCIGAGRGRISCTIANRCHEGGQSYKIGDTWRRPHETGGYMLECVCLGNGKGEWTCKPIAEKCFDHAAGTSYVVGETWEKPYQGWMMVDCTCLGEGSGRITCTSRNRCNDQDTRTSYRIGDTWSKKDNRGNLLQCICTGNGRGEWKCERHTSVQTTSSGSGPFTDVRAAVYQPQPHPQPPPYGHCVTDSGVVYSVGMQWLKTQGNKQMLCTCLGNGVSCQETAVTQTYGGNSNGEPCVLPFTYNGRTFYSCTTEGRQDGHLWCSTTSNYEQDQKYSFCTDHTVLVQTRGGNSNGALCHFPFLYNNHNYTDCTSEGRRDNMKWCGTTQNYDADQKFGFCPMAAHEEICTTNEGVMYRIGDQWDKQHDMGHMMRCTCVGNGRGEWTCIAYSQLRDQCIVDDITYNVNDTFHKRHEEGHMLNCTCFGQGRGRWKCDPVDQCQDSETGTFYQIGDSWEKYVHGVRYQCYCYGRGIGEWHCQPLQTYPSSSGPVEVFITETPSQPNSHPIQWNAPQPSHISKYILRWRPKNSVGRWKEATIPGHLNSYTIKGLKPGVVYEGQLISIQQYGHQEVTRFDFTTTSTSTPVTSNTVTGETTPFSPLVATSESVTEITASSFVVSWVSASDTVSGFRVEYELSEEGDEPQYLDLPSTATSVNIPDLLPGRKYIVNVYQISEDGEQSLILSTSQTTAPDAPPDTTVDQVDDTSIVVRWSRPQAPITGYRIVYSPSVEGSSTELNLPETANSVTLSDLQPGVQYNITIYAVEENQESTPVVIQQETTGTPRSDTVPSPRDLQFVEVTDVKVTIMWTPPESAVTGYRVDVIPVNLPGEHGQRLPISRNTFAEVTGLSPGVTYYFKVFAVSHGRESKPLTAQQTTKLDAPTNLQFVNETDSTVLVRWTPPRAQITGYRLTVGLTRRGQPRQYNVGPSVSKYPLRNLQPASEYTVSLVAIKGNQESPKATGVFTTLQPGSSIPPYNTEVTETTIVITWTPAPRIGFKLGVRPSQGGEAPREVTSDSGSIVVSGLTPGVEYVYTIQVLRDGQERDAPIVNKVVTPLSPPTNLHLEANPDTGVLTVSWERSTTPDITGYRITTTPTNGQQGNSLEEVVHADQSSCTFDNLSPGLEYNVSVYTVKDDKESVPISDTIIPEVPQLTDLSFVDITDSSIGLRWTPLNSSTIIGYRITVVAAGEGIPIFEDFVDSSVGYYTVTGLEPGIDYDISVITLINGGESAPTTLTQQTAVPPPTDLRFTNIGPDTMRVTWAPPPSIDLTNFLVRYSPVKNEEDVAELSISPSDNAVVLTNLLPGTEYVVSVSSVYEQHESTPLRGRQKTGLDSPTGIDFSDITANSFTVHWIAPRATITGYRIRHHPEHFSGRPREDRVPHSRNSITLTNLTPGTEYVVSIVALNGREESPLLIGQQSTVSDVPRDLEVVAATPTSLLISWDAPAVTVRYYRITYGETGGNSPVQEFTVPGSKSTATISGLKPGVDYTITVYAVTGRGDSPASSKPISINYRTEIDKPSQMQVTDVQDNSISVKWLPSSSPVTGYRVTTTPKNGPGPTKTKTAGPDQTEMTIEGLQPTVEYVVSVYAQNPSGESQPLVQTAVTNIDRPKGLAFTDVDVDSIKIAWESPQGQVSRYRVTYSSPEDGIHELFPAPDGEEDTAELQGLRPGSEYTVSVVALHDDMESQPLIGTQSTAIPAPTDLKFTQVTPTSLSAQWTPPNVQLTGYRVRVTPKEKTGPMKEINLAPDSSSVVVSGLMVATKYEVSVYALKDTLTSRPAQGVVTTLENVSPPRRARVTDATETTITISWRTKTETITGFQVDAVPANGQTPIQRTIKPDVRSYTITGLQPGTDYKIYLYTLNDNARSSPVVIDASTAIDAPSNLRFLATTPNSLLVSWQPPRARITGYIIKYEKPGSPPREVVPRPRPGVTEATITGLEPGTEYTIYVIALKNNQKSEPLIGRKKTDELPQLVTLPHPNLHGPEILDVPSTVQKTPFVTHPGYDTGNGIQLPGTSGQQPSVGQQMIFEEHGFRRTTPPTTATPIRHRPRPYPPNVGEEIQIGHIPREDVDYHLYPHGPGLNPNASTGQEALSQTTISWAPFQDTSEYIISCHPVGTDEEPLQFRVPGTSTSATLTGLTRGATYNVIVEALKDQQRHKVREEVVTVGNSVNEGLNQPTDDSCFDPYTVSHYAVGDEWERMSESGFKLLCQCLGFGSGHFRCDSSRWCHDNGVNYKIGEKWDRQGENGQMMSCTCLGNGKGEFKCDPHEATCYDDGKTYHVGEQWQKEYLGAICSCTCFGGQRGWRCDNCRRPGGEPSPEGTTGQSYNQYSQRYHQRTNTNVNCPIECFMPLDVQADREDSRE

B1: GST-OspC_(B31-ECM)^- (natural protein, B. burgdorferi strain B31-A3, UniProt Q07337 19-210, looked up)
chain: CNNSGKDGNTSANSADESVKGPNLTEISKKITDSNAVLLAVKEVEALLSSIDEIAAKAIGKKIHQNNGLDTENNHNGSLLAGAYAISTLIKQKLDGLMNEGLMEMIDAAMMCSETFTNKLKEKHTDLGKEGVTDADAKEAILKTNGTKTKGAEELGKLFESVEVLSKAAKEMLANSVKELTSPVVAESPKKP
notes: Cloned into pGEX4T2 at BamHI and SalI; also called OspCECM^-; source: E. coli BL21(DE3), purified by glutathione chromatography
As a reminder, the Kd is the free concentration of one partner at which half of the binding sites on the other are occupied at equilibrium, for simple one-to-one binding. For the molecule B1, the Kd in assay [1] was 2.14 µM.

B2: GST-OspCB31 (natural protein)
chain: B1 chain with M98K, M103K, M105K, M110K, M111K
notes: Cloned into pGEX4T2 at BamHI and SalI; also called wild type OspCB31; source: E. coli BL21(DE3), purified by glutathione chromatography
Take B2: the Kd in assay [1] is 3.46 µM.

B3: OspCB31, untagged (natural protein, B. burgdorferi strain B31-A3, UniProt Q07337 19-210, looked up)
chain: B1 chain with M98K, M103K, M105K, M110K, M111K
notes: OspC (outer surface protein C) of B. burgdorferi strain B31-A3, without GST tag; Probably the GST fusion with the tag removed
A word on the koff: it is the first-order rate constant of dissociation. For orientation: kon means the second-order rate constant of association. As to B3, in assay [2], the affinity, expressed as Kd, was 9.21 µM; the off-rate constant (koff) was 0.13 s⁻¹; the on-rate (kon) was 19900 M⁻¹ s⁻¹.

B4: GST-OspC_(VS461) (natural protein, B. afzelii strain VS461, UniProt Q0SL36 19-212, looked up)
chain: CNNSGKGGDSASTNPADESAKGPNLTEISKKITDSNAFVLAVKEVETLVLSIDELAKKAIGQKIDNNNGLAALNNQNGSLLAGAYAISTLITEKLSKLKNLEELKTEIAKAKKCSEEFTNKLKSGHADLGKQDATDDHAKAAILKTHATTDKGAKEFKDLFESVEGLLKAAQVALTNSVKELTSPVVAESPKKP
notes: Cloned into pGEX4T2 at BamHI and SalI; source: E. coli BL21(DE3), purified by glutathione chromatography
Take B4: the equilibrium dissociation constant (Kd) in assay [1] is 0.52 µM.

B5: OspC_(VS461), untagged (natural protein, B. afzelii strain VS461, UniProt Q0SL36 19-212, looked up)
chain: B4 chain
notes: OspC (outer surface protein C) of B. afzelii strain VS461, without GST tag; Probably the GST fusion with the tag removed
In assay [2], B5 registered a Kd of 0.8 µM, an off-rate constant (koff) of 0.09 s⁻¹ and an association rate constant (kon) of 151000 M⁻¹ s⁻¹.
